Test results taken from patent US20240294581.

Tested on: T1, Leupeptin A (N-Acetyl-L-leucyl-L-leucyl-L-argininal)
T1 sequence: LLR

Q: Which results are given for “Plu4509 (hypothetical protein / candidate protease from P. luminescens TTO1), purified as a His6x-tagged variant”?
A: production of metabolites 10 and 11 (in vitro enzyme assay, end point analysis; 1 h, 35 C; LC-MS): addition of enzyme indeed significantly enhanced production of 10 and 11; production of metabolites 10 and 11 in E. coli expressing plu4509, fed leupeptin A, versus vector control: E. coli control cultures were capable of generating both metabolites 10 and 11 with plu4509 providing an enhancement in production over controls
